According to US20190017046A1:

Assays:
[1] = biological target: lysozyme, fluorescence-labeled with Alexa Fluor 488; experiment: grade of lysozyme carrying rate in the summary table (A: equal to or higher than 50%)
[2] = biological target: lysozyme, fluorescence-labeled with Alexa Fluor 488; experiment: fluorescent lysozyme retained in the sponge after 3 h in 10x diluted PBS; supernatant fluorescence, plate reader
[3] = biological target: lysozyme, fluorescence-labeled with Alexa Fluor 488; experiment: grade of lysozyme carrying rate in the summary table (B: 25% or higher and less than 50%)
[4] = biological target: lysozyme, fluorescence-labeled with Alexa Fluor 488; experiment: grade of lysozyme carrying rate in the summary table (C: less than 25%)

lysozyme carrying rate [1] [%]	lysozyme carrying rate (actual measurement value) [2] [%]	lysozyme carrying rate [3] [%]	lysozyme carrying rate [4] [%]	Substance
> 50	71			member for a preparation "A": thermally crosslinked substance of CBE3 and succinylated CBE3, molar ratio of CBE3 to succinylated CBE3 = 1 to 3
	38	25 to 50		member for a preparation "C": thermally crosslinked substance of CBE3 and succinylated CBE3, molar ratio of CBE3 to succinylated CBE3 = 3 to 1
	8		< 25	member for a preparation "G": thermally crosslinked CBE3 only, molar ratio of CBE3 to succinylated CBE3 = 1 to 0
	66			member for a preparation "B": thermally crosslinked substance of CBE3 and succinylated CBE3, molar ratio of CBE3 to succinylated CBE3 = 1 to 1
